# T1: PUF4 RNA-binding domain (Saccharomyces cerevisiae, UniProt P25339 537-888)
# T1 sequence: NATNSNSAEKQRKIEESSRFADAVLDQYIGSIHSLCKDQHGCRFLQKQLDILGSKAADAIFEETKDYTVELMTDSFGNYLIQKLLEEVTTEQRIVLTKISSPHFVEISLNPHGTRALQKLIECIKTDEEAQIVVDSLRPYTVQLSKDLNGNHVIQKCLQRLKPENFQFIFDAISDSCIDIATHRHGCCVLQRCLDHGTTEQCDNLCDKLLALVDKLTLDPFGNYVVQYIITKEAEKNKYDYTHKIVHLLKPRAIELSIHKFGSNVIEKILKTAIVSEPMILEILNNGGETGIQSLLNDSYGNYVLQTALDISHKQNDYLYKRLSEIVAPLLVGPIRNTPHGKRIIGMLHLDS
# Biological target: T1, PUF4 RNA-binding domain
# Assay: Mg; RNA-MaP; 20 mM Na-HEPES pH 7.4, 30 mM KOAc, 0.75 mM MgCl2, 0.1% Tween-20, 5% glycerol, 0.1 mg/mL BSA, 2 mM DTT; 25 C; 0.0125-409.6 nM protein
# Details: tags: N-His6-TEV cleaved; C-SNAP kept, Cy3B-labelled; label: tethered on chip by stalled RNA polymerase
row,Binder,Kd [nM]
1,UCUCUUUGUAGCAGUUCUCUU (ssRNA) [Ic_S1_P4E.1_K4.1_C4.1_H4.1_A4.1_[T5G]_[A6C]_[T7A]_F4.1_[T8G]_[A9T]_T4.1],1440
2,UCUCUUUGUAGCAGCUCUCUU (ssRNA) [Ic_S1_P4E.1_K4.1_C4.1_H4.1_A4.1_[T5G]_[A6C]_[T7A]_F4.1_[T8G]_[A9C]_T4.1],> 2300
3,UCUCUUUGUAGCAUUUCUCUU (ssRNA) [Ic_S1_P4E.1_K4.1_C4.1_H4.1_A4.1_[T5G]_[A6C]_[T7A]_F4.1_[A9T]_T4.1],32.4
4,UCUCUUUGUAGUCCAUCUCUU (ssRNA) [Ic_S1_P4E.1_K4.1_C4.1_H4.1_A4.1_[T5G]_[A6T]_[T7C]_F4.1_[T8C]_T4.1],1510
5,UCUCUUUGUAGCCUUUCUCUU (ssRNA) [Ic_S1_P4E.1_K4.1_C4.1_H4.1_A4.1_[T5G]_[A6C]_[T7C]_F4.1_[A9T]_T4.1],679
6,UCUCUUUGUAGCCAUUCUCUU (ssRNA) [Ic_S1_P4E.1_K4.1_C4.1_H4.1_A4.1_[T5G]_[A6C]_[T7C]_F4.1_[T8A]_[A9T]_T4.1],1890
7,UCUCUUUGUAUAACUCUCUU (ssRNA) [Ib_S1_P3E.1_K3.1_C3.1_H3.1_A3.1_F3.1_[T7A]_[A8C]_T3.1],47
8,UCUCUUUGUAGUAUUUCUCUU (ssRNA) [Ic_S1_P4E.1_K4.1_C4.1_H4.1_A4.1_[T5G]_[A6T]_[T7A]_F4.1_[A9T]_T4.1],297
9,UCUCUUUGUAGCAUCUCUCUU (ssRNA) [Ic_S1_P4E.1_K4.1_C4.1_H4.1_A4.1_[T5G]_[A6C]_[T7A]_F4.1_[A9C]_T4.1],398
10,UCUCUUUGUAUACCUCUCUU (ssRNA) [Ic_S1_P3E.1_K3.1_C3.1_H3.1_A3.1_F3.1_[T7C]_[A8C]_T3.1],48.9
11,UCUCUUUGUAGCCGAUCUCUU (ssRNA) [Ic_S1_P4E.1_K4.1_C4.1_H4.1_A4.1_[T5G]_[A6C]_[T7C]_F4.1_[T8G]_T4.1],> 2300
12,UCUCUUUGUAGUACUUCUCUU (ssRNA) [Ic_S1_P4E.1_K4.1_C4.1_H4.1_A4.1_[T5G]_[A6T]_[T7A]_F4.1_[T8C]_[A9T]_T4.1],760
13,UCUCUUUGUAGUGUCUCUCUU (ssRNA) [Ic_S1_P4E.1_K4.1_C4.1_H4.1_A4.1_[T5G]_[A6T]_[T7G]_F4.1_[A9C]_T4.1],1370
14,UCUCUUUGUAGUCUUUCUCUU (ssRNA) [Ic_S1_P4E.1_K4.1_C4.1_H4.1_A4.1_[T5G]_[A6T]_[T7C]_F4.1_[A9T]_T4.1],389
15,UCUCUUUGUAGCAAUUCUCUU (ssRNA) [Ic_S1_P4E.1_K4.1_C4.1_H4.1_A4.1_[T5G]_[A6C]_[T7A]_F4.1_[T8A]_[A9T]_T4.1],857
16,UCUCUUUGUAGUCUCUCUCUU (ssRNA) [Ic_S1_P4E.1_K4.1_C4.1_H4.1_A4.1_[T5G]_[A6T]_[T7C]_F4.1_[A9C]_T4.1],658

row,Binder,Kd [nM]
1,UCUCUUUGUAGUUUCUCUCUU (ssRNA) [Ic_S1_P4E.1_K4.1_C4.1_H4.1_A4.1_[T5G]_[A6T]_F4.1_[A9C]_T4.1],365
2,UCUCUUUGUAGCCCUUCUCUU (ssRNA) [Ic_S1_P4E.1_K4.1_C4.1_H4.1_A4.1_[T5G]_[A6C]_[T7C]_F4.1_[T8C]_[A9T]_T4.1],> 2300
3,UCUCUUUGUAGCCGGUCUCUU (ssRNA) [Ic_S1_P4E.1_K4.1_C4.1_H4.1_A4.1_[T5G]_[A6C]_[T7C]_F4.1_[T8G]_[A9G]_T4.1],> 2300
4,UCUCUUUGUAGCCUAUCUCUU (ssRNA) [Ic_S1_P4E.1_K4.1_C4.1_H4.1_A4.1_[T5G]_[A6C]_[T7C]_F4.1_T4.1],34.3
5,UCUCUUUGUAGCCCGUCUCUU (ssRNA) [Ic_S1_P4E.1_K4.1_C4.1_H4.1_A4.1_[T5G]_[A6C]_[T7C]_F4.1_[T8C]_[A9G]_T4.1],> 2300
6,UCUCUUUGUAGUACAUCUCUU (ssRNA) [Ic_S1_P4E.1_K4.1_C4.1_H4.1_A4.1_[T5G]_[A6T]_[T7A]_F4.1_[T8C]_T4.1],1720
7,UCUCUUUGUAGUUCCUCUCUU (ssRNA) [Ic_S1_P4E.1_K4.1_C4.1_H4.1_A4.1_[T5G]_[A6T]_F4.1_[T8C]_[A9C]_T4.1],1260
8,UCUCUUUGUAGUAAUUCUCUU (ssRNA) [Ic_S1_P4E.1_K4.1_C4.1_H4.1_A4.1_[T5G]_[A6T]_[T7A]_F4.1_[T8A]_[A9T]_T4.1],1500
9,UCUCUUUGUAGCCGUUCUCUU (ssRNA) [Ic_S1_P4E.1_K4.1_C4.1_H4.1_A4.1_[T5G]_[A6C]_[T7C]_F4.1_[T8G]_[A9T]_T4.1],> 2300
10,UCUCUUUGUAGUUCAUCUCUU (ssRNA) [Ic_S1_P4E.1_K4.1_C4.1_H4.1_A4.1_[T5G]_[A6T]_F4.1_[T8C]_T4.1],1570
11,UCUCUUUGUAGCACUUCUCUU (ssRNA) [Ic_S1_P4E.1_K4.1_C4.1_H4.1_A4.1_[T5G]_[A6C]_[T7A]_F4.1_[T8C]_[A9T]_T4.1],949
12,UCUCUUUGUAGCUUCUCUCUU (ssRNA) [Ic_S1_P4E.1_K4.1_C4.1_H4.1_A4.1_[T5G]_[A6C]_F4.1_[A9C]_T4.1],612
13,UCUCUUUGUAGCUCUUCUCUU (ssRNA) [Ic_S1_P4E.1_K4.1_C4.1_H4.1_A4.1_[T5G]_[A6C]_F4.1_[T8C]_[A9T]_T4.1],2020
14,UCUCUUUGUAGUAUGUCUCUU (ssRNA) [Ic_S1_P4E.1_K4.1_C4.1_H4.1_A4.1_[T5G]_[A6T]_[T7A]_F4.1_[A9G]_T4.1],278
15,UCUCUUUGUAGCUGCUCUCUU (ssRNA) [Ic_S1_P4E.1_K4.1_C4.1_H4.1_A4.1_[T5G]_[A6C]_F4.1_[T8G]_[A9C]_T4.1],2070
16,UCUCUUUGUAGCCACUCUCUU (ssRNA) [Ic_S1_P4E.1_K4.1_C4.1_H4.1_A4.1_[T5G]_[A6C]_[T7C]_F4.1_[T8A]_[A9C]_T4.1],> 2300

# From paper PMC9352680, “A comprehensive thermodynamic model for RNA binding by the Saccharomyces cerevisiae Pumilio protein PUF4”
